A word on the Kd: it is the free concentration of one partner at which half of the binding sites on the other are occupied at equilibrium, for simple one-to-one binding. The low end stands for tighter binding, the high end for weaker binding.

Bridges are numbered along the chain shown (N, C = ends). Where no end group is shown, it is not given here.

Our source for the Kd values is paper PMC7585440, “Sclerostin inhibits Wnt signaling through tandem interaction with two LRP6 ectodomains” (Nature Communications, 2020).

Conditions in all cases: both partners purified
Test [1] addresses T1, human LRP6 E1E2 (P21-P630) with a C-terminal 10x His tag (human, UniProt O75581 21-630, labeled with the dye NT-647 in the MST experiments (legends: Cy-5 dye-labeled)).
T1 construct: low-density lipoprotein receptor-related protein 6 (LRP6), human, ectodomains E1 and E2, residues P21-P630; also called LPR6 E1E2; source: High Five insect cells, secreted, purified (Ni-NTA, HiTrapQ, SEC); for the crystal co-expressed with SOSTtr177
T1 sequence (looked up): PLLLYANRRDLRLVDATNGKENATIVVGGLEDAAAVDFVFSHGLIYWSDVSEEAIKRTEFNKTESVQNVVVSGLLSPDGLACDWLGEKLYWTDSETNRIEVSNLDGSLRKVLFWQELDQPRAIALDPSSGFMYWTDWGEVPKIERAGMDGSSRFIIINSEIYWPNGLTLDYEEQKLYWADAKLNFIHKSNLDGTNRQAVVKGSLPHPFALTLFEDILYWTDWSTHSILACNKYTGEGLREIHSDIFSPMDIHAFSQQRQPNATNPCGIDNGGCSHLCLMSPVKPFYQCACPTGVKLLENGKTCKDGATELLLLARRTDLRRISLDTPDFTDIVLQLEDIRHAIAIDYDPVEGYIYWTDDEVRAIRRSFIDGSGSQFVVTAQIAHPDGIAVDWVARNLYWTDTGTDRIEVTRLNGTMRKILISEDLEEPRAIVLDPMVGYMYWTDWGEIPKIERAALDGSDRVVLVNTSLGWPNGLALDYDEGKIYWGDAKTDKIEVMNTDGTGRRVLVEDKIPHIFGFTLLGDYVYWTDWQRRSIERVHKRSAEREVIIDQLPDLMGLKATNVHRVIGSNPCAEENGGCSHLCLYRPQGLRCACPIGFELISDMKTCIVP
Kind of test: MST; labeled LRP6 E1E2 or LRP6 E1 (~5 nM) titrated with unlabeled Smo-SOST, MBP-SOST, tags or peptides; 20 mM Tris-Cl pH 7.0, 200 mM NaCl, 0.5 mg/ml BSA, 0.05% Tween 20; 22 °C; three independent experiments.

The target in test [2] is T2, human LRP6 E1 (P21-D325) with a C-terminal His tag (human, UniProt O75581 21-325, labeled with the dye NT-647 in the MST experiments (legends: Cy-5 dye-labeled)).
T2 construct: low-density lipoprotein receptor-related protein 6 (LRP6), human, ectodomain E1, residues P21-D325; The methods name a 10x His tag; also called LPR6 E1; source: High Five insect cells, secreted, purified (Ni-NTA, HiTrapQ, SEC)
T2 sequence (looked up): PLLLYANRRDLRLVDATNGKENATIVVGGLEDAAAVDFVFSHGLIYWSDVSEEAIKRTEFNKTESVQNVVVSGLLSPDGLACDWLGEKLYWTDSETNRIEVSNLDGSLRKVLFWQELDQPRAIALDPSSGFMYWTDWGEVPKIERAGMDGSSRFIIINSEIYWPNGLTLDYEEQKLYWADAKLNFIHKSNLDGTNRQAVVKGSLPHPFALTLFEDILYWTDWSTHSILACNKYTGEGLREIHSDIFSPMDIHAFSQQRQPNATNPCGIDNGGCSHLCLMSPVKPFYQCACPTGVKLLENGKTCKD
The description is as above.

The target of test [3] is T3, human LRP6 E1 with a C-terminal 10× His tag, labeled with the dye NT-647 (human, dye NT-647 (Monolith NT Protein Labeling kit)).
T3 chain: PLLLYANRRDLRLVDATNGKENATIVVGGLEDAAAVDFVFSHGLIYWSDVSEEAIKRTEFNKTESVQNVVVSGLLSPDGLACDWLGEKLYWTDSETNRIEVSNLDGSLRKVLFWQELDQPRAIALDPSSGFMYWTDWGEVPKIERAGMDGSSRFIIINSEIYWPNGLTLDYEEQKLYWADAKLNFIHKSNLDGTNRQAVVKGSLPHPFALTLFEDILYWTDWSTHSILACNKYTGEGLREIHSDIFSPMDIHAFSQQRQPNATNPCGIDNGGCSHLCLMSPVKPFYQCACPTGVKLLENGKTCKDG
Kind of test: MST; LRP6 E1E2 or E1 labeled with NT-647 at ~5 nM, unlabeled SOST proteins or peptides titrated; 20 mM Tris-Cl pH 7.0, 200 mM NaCl, 0.5 mg/ml BSA, 0.05% Tween 20; 22 °C; Monolith NT.115 Pico.

In test [4] the target is T4, human LRP6 E1E2 with a C-terminal 10× His tag, labeled with the dye NT-647 (human, UniProt O75581 21-630, dye NT-647 (Monolith NT Protein Labeling kit)).
T4 construct: Low-density lipoprotein receptor-related protein 6 (LRP6), human, ectodomains E1 and E2; the limits P21-P630 are printed for the co-expression construct; the MST construct was cloned into another vector (pAcGP67A); also called Labeled LRP6 E1E2; source: High Five insect cells (pAcGP67A), purified (Ni-NTA, HiTrapQ, SEC), no tag cleavage; not shown: His10, C-terminal, kept
T4 sequence (looked up): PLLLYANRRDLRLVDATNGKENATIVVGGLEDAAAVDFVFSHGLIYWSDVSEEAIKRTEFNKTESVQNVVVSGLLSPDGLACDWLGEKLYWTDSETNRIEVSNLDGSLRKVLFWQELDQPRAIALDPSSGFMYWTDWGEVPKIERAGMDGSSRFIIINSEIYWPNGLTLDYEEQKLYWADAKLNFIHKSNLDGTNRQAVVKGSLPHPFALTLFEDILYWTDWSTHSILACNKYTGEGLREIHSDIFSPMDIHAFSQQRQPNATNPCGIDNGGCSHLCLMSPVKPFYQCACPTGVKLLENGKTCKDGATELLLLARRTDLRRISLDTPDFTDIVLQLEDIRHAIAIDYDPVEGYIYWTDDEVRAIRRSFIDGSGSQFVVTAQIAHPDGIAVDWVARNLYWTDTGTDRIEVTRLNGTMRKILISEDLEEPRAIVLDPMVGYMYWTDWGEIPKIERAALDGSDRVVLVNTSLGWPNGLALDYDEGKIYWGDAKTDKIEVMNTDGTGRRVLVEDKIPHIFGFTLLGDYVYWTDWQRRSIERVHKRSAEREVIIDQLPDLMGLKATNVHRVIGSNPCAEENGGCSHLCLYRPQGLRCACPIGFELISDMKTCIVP
Described as above.

B1: human SOSTtr187 (Q24-A187) with an N-terminal His6-SUMO tag (domain or fragment)
chain: QGWQAFKNDATEIIPELGEYPEPPPELENNKTMNRAENGGRPPHHPFETKDVSEYSCRELHFTRYVTDGPCRSAKPVTELVCSGQCGPARLLPNAIGRGKWWRPSGPDFRCIPDRYRAQRVQLLCPGGEAPRARKVRLVASCKCKRLTRFHNQSELKDFGTEAA
notes: sclerostin (SOST), human, residues Q24-A187; also called Smo-SOSTtr187; source: High Five insect cells, secreted, purified; tag not cleaved; not shown: His6, N-terminal, kept; SUMO, N-terminal, kept
The molecule B1 came in with a Kd in test [1] of 600 nM.

B2: human WT SOST (Q24-Y213) with an N-terminal His6-SUMO tag (natural protein)
chain: QGWQAFKNDATEIIPELGEYPEPPPELENNKTMNRAENGGRPPHHPFETKDVSEYSCRELHFTRYVTDGPCRSAKPVTELVCSGQCGPARLLPNAIGRGKWWRPSGPDFRCIPDRYRAQRVQLLCPGGEAPRARKVRLVASCKCKRLTRFHNQSELKDFGTEAARPQKGRKPRPRARSAKANQAELENAY
notes: sclerostin (SOST), human, residues Q24-Y213; also called Smo-SOST; Smo-SOST WT; source: High Five insect cells, secreted, purified; tag not cleaved; not shown: His6, N-terminal, kept; SUMO, N-terminal, kept
B2 showed a Kd in test [2] of 780 nM.

B3: human WT SOST (Q24-Y213) with an N-terminal His6-MBP tag (natural protein)
chain: QGWQAFKNDATEIIPELGEYPEPPPELENNKTMNRAENGGRPPHHPFETKDVSEYSCRELHFTRYVTDGPCRSAKPVTELVCSGQCGPARLLPNAIGRGKWWRPSGPDFRCIPDRYRAQRVQLLCPGGEAPRARKVRLVASCKCKRLTRFHNQSELKDFGTEAARPQKGRKPRPRARSAKANQAELENAY
notes: sclerostin (SOST), human, residues Q24-Y213; also called MBP-SOST; MBP-SOST WT; source: High Five insect cells, secreted, purified; tag not cleaved; not shown: His6, N-terminal, kept; MBP, N-terminal, kept
As for B3, the Kd in test [1] turned out to be 170 nM.

B4: disulfide-bonded, circularized SOST loop 2 peptide (CLLPNAIGRGKWGC) (peptide)
peptide: CLLPNAIGRGKWGC
modifications: disulfide 1-14 (inferred)
notes: first cysteine of the printed peptide, for the ring-closing disulfide; last two residues of the printed peptide, with the second cysteine of the disulfide; source: synthetic peptide (Peptron)
Regarding B4, the Kd turned out to be 5200 nM in test [3] and 5500 nM in test [4].

B5: human SOSTtr178 (Q24-E178) with an N-terminal His6-SUMO tag (domain or fragment)
chain: QGWQAFKNDATEIIPELGEYPEPPPELENNKTMNRAENGGRPPHHPFETKDVSEYSCRELHFTRYVTDGPCRSAKPVTELVCSGQCGPARLLPNAIGRGKWWRPSGPDFRCIPDRYRAQRVQLLCPGGEAPRARKVRLVASCKCKRLTRFHNQSE
notes: sclerostin (SOST), human, residues Q24-E178; also called Smo-SOSTtr178; source: High Five insect cells, secreted, purified; tag not cleaved; not shown: His6, N-terminal, kept; SUMO, N-terminal, kept
In turn, B5 returned a Kd in test [1] of 680 nM.

B6: human SOSTtr177 (Q24-S177) with an N-terminal His6-SUMO tag (domain or fragment)
chain: QGWQAFKNDATEIIPELGEYPEPPPELENNKTMNRAENGGRPPHHPFETKDVSEYSCRELHFTRYVTDGPCRSAKPVTELVCSGQCGPARLLPNAIGRGKWWRPSGPDFRCIPDRYRAQRVQLLCPGGEAPRARKVRLVASCKCKRLTRFHNQS
notes: sclerostin (SOST), human, residues Q24-S177; also called Smo-SOSTtr177; source: High Five insect cells, secreted, purified; tag not cleaved; not shown: His6, N-terminal, kept; SUMO, N-terminal, kept
For the molecule B6, the Kd in test [1] came out at 680 nM.
